Reference: US20230279126A1 (published 2023)

Assays:
[1] = target: T1, extracellular domain of mouse IL23R (mIL23R ECD) (mouse, UniProt Q8K4B4 24-374); assay: periplasmic extract ELISA (PE-ELISA) of phage clones, colorimetric
T1 construct: The immunogen was an ECD-human IgG1 hinge-Fc fusion
T1 sequence: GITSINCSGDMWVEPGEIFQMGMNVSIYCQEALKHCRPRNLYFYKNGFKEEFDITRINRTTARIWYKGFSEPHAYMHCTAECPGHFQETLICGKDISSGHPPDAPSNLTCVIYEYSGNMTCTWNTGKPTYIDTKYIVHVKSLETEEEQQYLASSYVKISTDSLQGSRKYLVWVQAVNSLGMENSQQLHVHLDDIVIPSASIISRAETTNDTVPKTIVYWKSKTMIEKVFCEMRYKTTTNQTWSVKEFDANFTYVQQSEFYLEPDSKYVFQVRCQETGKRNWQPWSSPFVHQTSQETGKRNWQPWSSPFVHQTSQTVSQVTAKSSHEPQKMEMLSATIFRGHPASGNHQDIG
Outline: (§1)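 After multiple rounds of biopanning on the human or mouse extracellular domain, individual phage clones were screened for selective binding by colorimetric periplasmic extract ELISA in 96-well plates. The library was built from camels given human and then mouse receptor extracellular domain–human IgG1 hinge–Fc fusion proteins. Their blood RNA was transcribed, and the roughly 400 bp VHH fragment was placed in frame with a his-tag in a phagemid in E. coli.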

[2] = target: T2, extracellular domain of human IL12RB1 (hIL12Rb1 ECD) (human, UniProt P42701 24-545); assay: as above
T2 construct: The immunogen was a fusion of the ECD with the human IgG1 hinge and Fc; also called IL12Rβ1; CD212
Outline: as §1

Binder | binding result [1] | binding result [2]
mIL23R VHH6 (VHH, Phagemid clone with his-tag, periplasmic extract) VHH: QVQLQESGGGSVQAGGSLRLSCAASGYTSGNYWMGWFRQAPGKEREGVATLWTGGASTFYGDSVKGRFTISRDNFKNTLYLQMNSLKVEDTAMYYCAADPALRLGANILRPAEYKYWGQGTQVTVSS | binds | 
hIL12Rb1_VHH1 (VHH, Phagemid clone with his-tag, periplasmic extract) VHH: QVQLQESGGGSVQAGGSLRLSCVASGYGYCGYDMSWYRQAPGKEREFVALITSDRSISYEDSVKARFIISRDNAANTGYLDMTRLTPDDTAIYYCKTSAAARESSWCRSRYRVASWGQGTQVTVSS |  | binds
mIL23R VHH18 (VHH, Phagemid clone with his-tag, periplasmic extract) VHH: QVQLQESGGGLVQPGGSLRLSCAASGFTFRLTAMRWVRQAPGKGLEWVSGIDSRGSTIYADSVKGRFTISKDNAKNTLYLQLNSLKTEDTAMYYCAQGVYGDTYSGSQGTQVTVSS | binds | 
mIL23R VHH17 (VHH, Phagemid clone with his-tag, periplasmic extract) VHH: QVQLQESGGGSVQAGGSLRLSCAASGFTFRLTAMRWVRQAPGKGLEWVSGIDSRGSTIYADSVKGRFTISKDNAKNTLYLQLNSLKTEDTAMYYCAQGVYGDTYSGSQGTQVTVSS | binds | 
mIL23R VHH13 (VHH, Phagemid clone with his-tag, periplasmic extract) VHH: QVQLQESGGGLVQPGGSLRLSCATSGFTFRLAAMRWVRQAPGKGLEWVSGIDSRGSTIYADSVKGRFTISKDNAKNTLYLQLNSLKTEDTAMYYCAQGVYGDTYSGSQGTQVTVSS | binds | 
mIL23R VHH40 (VHH, Phagemid clone with his-tag, periplasmic extract) VHH: QVQLQESGGGLVQPGGSLRLSCAASGFTFRLTAMRWVRQAPGKGLEWVSGIDSRGSTIYADSVKGRFTISKDNAKNTLYLQLNSLKSEDTAMYYCAQGVYGDTYSGSQGTQVTVSS | binds | 
mIL23R VHH2 (VHH, Phagemid clone with his-tag, periplasmic extract) VHH: QVQLQESGGGSVQAGGSLTLSCTAPGFTFRLAAMRWVRQAPGKGLEWVSGIDSRGSTIYADSVKGRFTISKDNAKNTLYLQLNSLKTEDTAMYYCAQGVYGDTYSGSQGTQVTVSS | binds | 
mIL23R VHH31 (VHH, Phagemid clone with his-tag, periplasmic extract) VHH: QVQLQESGGGLVQPGGSLRLSCAASGFTFRLTAMRWVRQAPGKGLEWVSGIDSRGSTIYADSVKGRFTISRDNAKNTLYLQLNSLKTEDTAMYYCAQGVYGDTYSGSQGTQVTVSS | binds | 
mIL23R VHH19 (VHH, Phagemid clone with his-tag, periplasmic extract) VHH: QVQLQESGGGLVQPGGSLRLSCAASGFTFRLSAMRWVRQAPGKGLEWVSGIDSRGSTIYADSVKGRFTISKDNAKNTLYLQLNSLKTEDTAMYYCAQGVYGDTYSGSQGTQVTVSS | binds | 
mIL23R VHH9 (VHH, Phagemid clone with his-tag, periplasmic extract) VHH: QVQLQESGGGLVQPGGSLRLSCATSGFTFRLTAMRWVRQAPGKGVEWVSGIDSAGSTIYADSVKGRFTISKDNAKNTLYLQMNSLKTEDTAMYYCAQGVYGDTYSGSQGTQVTVSS | binds | 
mIL23R VHH46 (VHH, Phagemid clone with his-tag, periplasmic extract) VHH: QVQLQESGGGLVQPGGSLRLSCAASGFTFRLSAMRWVRQAPGKGLEWVSGIDSRGSTIYADSVKGRFTISKDDAKNTLYLQLNSLKTEDTAMYYCAQGVYGDTYSGSQGTQVTVSS | binds | 
mIL23R VHH30 (VHH, Phagemid clone with his-tag, periplasmic extract) VHH: QVQLQESGGGLVQPGGSLRLSCAASGFTFRLTAMRWVRQAPGKGLEWVSGIDSRGSTIYADSVKGRFTISKDNAKNTLYLQLNSLKTEDTAMYYCAQGVYGDTYSGSLGTQVTVSS | binds | 
mIL23R VHH45 (VHH, Phagemid clone with his-tag, periplasmic extract) VHH: QVQLQESGGGLVQPGGSLRLSCAASGFTFRLSAMRWVRQAPGKGLEWVSGIDSRGSTIYADSVEGRFTISKDNAKNTLYLQLNSLKTEDTAMYYCAQGVYGDTYSGSQGTQVTVSS | binds | 
mIL23R VHH44 (VHH, Phagemid clone with his-tag, periplasmic extract) VHH: QVQLQESGGGLVQPGGSLRLSCAASGFTFRLSAMRWVRQAPGKGFEWVSGIDSRGSTIYADSVKGRFTISKDNAKNTLYLQLNSLKTEDTAMYYCAQGVYGDTYSGSQGTQVTVSS | binds | 
mIL23R VHH28 (VHH, Phagemid clone with his-tag, periplasmic extract) VHH: QVQLQESGGGLVQPGGSLRLSCAASGFTFRLTAMRWVRQAPGKGLEWVSGIDSRGSTIYADSVKGRFTISRDNAKNTLYLQLNSLKTEDAAMYYCAQGVYGDTYSGSQGTQVTVSS | binds | 
mIL23R VHH23 (VHH, Phagemid clone with his-tag, periplasmic extract) VHH: QVQLQESGGGLVQPGGSLRLSCAASGFNFRLYAMRWVRQAPGKGVEWVSGIDSGGSTIYADSVKGRFTISKDNAKNTLYLQLNSLKTEDTAMYYCAQGVYGDTYSGSQGTQVTVSS | binds | 
mIL23R VHH34 (VHH, Phagemid clone with his-tag, periplasmic extract) VHH: QVQLQESGGGLVQPGGSLRLSCAASGFTFRLTAMRWVRQAPGKGLEWVSGIDSRGSTIYADSVKGRFTISKDNAKNTLYLQLNSLKTEDTAMYYCAQGVYGDTHSGSQGTQVTVSS | binds | 
mIL23R VHH42 (VHH, Phagemid clone with his-tag, periplasmic extract) VHH: QVQLQESGGGLVQPGGSLRLSCAASGFTFSNYAMRWVRQAPGKGLEWVSGIDSRGSTIYADSVKGRFTISKDNAKNTLYLQLNSLKTEDTAMYYCAQGVYGDTYSGSQGTQVTVSS | binds | 
hIL12Rb1_VHH10 (VHH, Phagemid clone with his-tag, periplasmic extract) VHH: QVQLQESGGGSVQAGGSLRLSCAVSGYDYCGYDVRWYRQAPGKEREFVSGIDSDGSTSYADSVKGRFTISQDNAENTSYLHMFSLKPEDTAMYYCKTESPAGESAWCRNFRGMDYWGKGTQVTVSS |  | binds
hIL12Rb1_VHH15 (VHH, Phagemid clone with his-tag, periplasmic extract) VHH: QVQLQESGGGSVQAGGSLRLSCAVSGYDYCGYDVRWYRQAPGKEREFVSGINSDGSTSYADSVKGRFTISQDNAENTSYLHMFSLKPEDTAMYYCKTESPAGESAWCRNFRGMDYWGKGTQVTVSS |  | binds
hIL12Rb1_VHH7 (VHH, Phagemid clone with his-tag, periplasmic extract) VHH: QVQLQESGGGSVQAGGSLRLSCAVSGYDYCGYDVRWYRRAPGKEREFVSGIDSDGSTSYADSVKGRFTISQDNAENTSYLHMFSLKPEDTAMYYCKTESPAGESAWCRNFRGMDYWGKGTQVTVSS |  | binds
hIL12Rb1_VHH19 (VHH, Phagemid clone with his-tag, periplasmic extract) VHH: QVQLQESGGGSVQAGGSLRLSCAVSGYDYCGYDVRWYRQAPGKEREFVSGINSDGSTSYADSVKGRFTISQDNAENTSYLHMFSLKPEDTAMYYCKTEGPAGESAWCRNFRGMDYWGKGTQVTVSS |  | binds
hIL12Rb1_VHH14 (VHH, Phagemid clone with his-tag, periplasmic extract) VHH: QVQLQESGGGSVQAGGSLRLSCAVSGYDYCGYDVRWYRRAPGKEREFVSGIDSDGSTSYADSVKGRFTISQDNAENTSYLHMFSLKPEDTAMYYCKTESPAGESAWCRNFRGMDYWGKGTQVTVSS |  | binds
mIL23R VHH26 (VHH, Phagemid clone with his-tag, periplasmic extract) VHH: QVQLQESGGGSVQAGGSLRLSCAASGYTFCMAWFRQAPGKEREGVARFYTRDGYTYYSDSVKGRFTISQNNAKNTLYLQMNSLKSEDTAMYYCAADLTRCSSNKNDFRYWGQGTQVTVSS | binds | 
mIL23R VHH24 (VHH, Phagemid clone with his-tag, periplasmic extract) VHH: QVQLQESGGGSVQAGGSLRLSCAVSGYTFCMAWFRQAPGKEREGVARFYTRDGYTYYSGSVKGRFTISQNNAKNTLYLQMNSLKSEDTAMYYCAADLTRCSSNKNDFRYWGQGTQVTVSS | binds | 
mIL23R VHH5 (VHH, Phagemid clone with his-tag, periplasmic extract) VHH: QVQLQESGGGSVQAGGSLRLSCAASGYTFCMAWFRQAPGKEREGVARFYTRDGYTYYSDSVKGRFTISQNNAKNTLYLQMNSLKSEDTAMYYCAADLARCSSNKNDFRYWGQGTQVTVSS | binds | 
mIL23R VHH43 (VHH, Phagemid clone with his-tag, periplasmic extract) VHH: QVQLQESGGGSVQAGGSLRLSCAASGYTFCMAWFRQAPGKEREGVARFYTRDGYTYYSDSVKGRFTISQDNAKNTLYLQMNSLKSEDTAMYYCAADLTRCSSNKNDFRYWGQGTQVTVSS | binds | 
mIL23R VHH22 (VHH, Phagemid clone with his-tag, periplasmic extract) VHH: QVQLQESGGGSVQAGGSLRLSCAASGYTFCMAWFRQAPGKEREGVARFYTRDSYTYYSDSVKGRFTISQNNAKNTLYLQMNSLKSEDTAMYYCAADLTRCSSNKNDFRYWGQGTQVTVSS | binds | 
mIL23R VHH4 (VHH, Phagemid clone with his-tag, periplasmic extract) VHH: QVQLQESGGGSVQAGGSLRLSCAASGYTYSNNCMGWFRQAPGKDRERIANIYTGGGRTTYADSVKGRFTISQDSAKSTVYLQMNSLKPEDTAMYYCAAGSCGSARSEYSYWGQGTQVTVSS | binds | 
mIL23R VHH3 (VHH, Phagemid clone with his-tag, periplasmic extract) VHH: QVQLQESGGGSVQAGGSLRLSCTASVNTYCEYNMSWYRQAPGKEREFVSGVDSDGSTRYSESVKGRFTISQDNAKNTMYLQMNGLKPEDTAMYYCKTYVCTFCSGNSCYYEYKYYYEGQGTQVTVSS | binds | 
